# In patent US20120058906A1 (published 2012):
# T1: rHuman Erythropoietin R/Fc Chimera, CF (R&D Systems Cat#963-ER) (human, UniProt P19235 25-250)
# T1 construct: Bought protein; also called EPOR; EPO R/Fc; Fc part of the bought chimera not given
# T1 sequence: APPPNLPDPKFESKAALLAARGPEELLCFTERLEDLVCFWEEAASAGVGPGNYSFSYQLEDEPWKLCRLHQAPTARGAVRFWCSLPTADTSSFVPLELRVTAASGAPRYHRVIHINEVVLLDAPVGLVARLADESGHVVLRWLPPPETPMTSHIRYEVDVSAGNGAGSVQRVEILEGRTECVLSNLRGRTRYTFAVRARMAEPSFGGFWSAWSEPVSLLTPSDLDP
# T2: rHuman Erythropoietin R/Fc Chimera, CF (R&D Systems Cat#963-ER) (human, UniProt P19235 25-250)
# T2 construct: Bought protein; also called EPO R/Fc; EPOR; not shown: Fc of the bought chimera
# T2 sequence: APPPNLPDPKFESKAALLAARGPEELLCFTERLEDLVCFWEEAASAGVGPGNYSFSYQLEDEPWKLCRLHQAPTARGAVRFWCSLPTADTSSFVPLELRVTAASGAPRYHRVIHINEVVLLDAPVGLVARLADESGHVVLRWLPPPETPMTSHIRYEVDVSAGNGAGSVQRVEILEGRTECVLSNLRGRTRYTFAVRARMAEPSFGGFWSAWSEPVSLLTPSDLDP
# How the values were obtained:
# [1] = molecular target: T3, rHuman CD44/Fc Chimera, CF (R&D Systems Cat#3660-CD) (human, UniProt P16070 21-220); assay: MSD ECL multi-spot assay, antigen spotted on plate, Fab 0.93 uM; blank spot 859
# T3 construct: Bought protein; Fc part of the bought chimera not given
# [2] = molecular target: T4, Recombinant Human DLL4 (R&D Systems Cat#1506-D4/CF) (human, UniProt Q9NR61 27-524); assay: as above
# T4 construct: Bought protein; also called delta-like protein 4; rHuman DLL4
# [3] = molecular target: T5, rHuman P-Cadherin/Fc Chimera, CF (R&D Systems Cat#861-PC) (human, UniProt P22223 108-654); assay: as above
# T5 construct: Bought protein; also called CDH3; Fc part of the bought chimera not given
# [4] = molecular target: T6, rHuman ErbB2/Fc Chimera, CF (R&D Systems Cat#1129-ER) (human, UniProt P04626 23-652); assay: as above
# T6 construct: Bought protein; also called HER2/neu; human epidermal growth factor 2 receptor; Fc part of the bought chimera not given
# [5] = molecular target: T7, rHuman Notch-1/Fc Chimera, CF (R&D Systems Cat#3647-TK) (human, UniProt P46531 19-526); assay: as above
# T7 construct: Bought protein; Fc part of the bought chimera not given
# [6] = molecular target: T8, rHuman IGF-1 sR (IGF-1 sR), CF (R&D Systems Cat#391-GR) (human, UniProt P08069 31-932); assay: as above
# T8 construct: Bought soluble receptor; also called insulin-like growth factor-1 soluble receptor; IGF-R1
# [7] = molecular target: T1, rHuman Erythropoietin R/Fc Chimera, CF …; assay: as above
# [8] = molecular target: T9, rHuman HGF R/c-MET/Fc Chimera, CF (R&D Systems Cat#358-MT/CF) (human, UniProt P08581 25-932); assay: ECL (MSD multi-spot) titration, Fab at 36 nM; blank spot 413
# T9 construct: Bought protein; also called HGF R/Fc; hepatocyte growth factor receptor; not shown: Fc of the bought chimera
# [9] = molecular target: T10, rHuman P-Cadherin/Fc Chimera, CF (R&D Systems Cat#861-PC) (human, UniProt P22223 108-654); assay: as above
# T10 construct: Bought protein; not shown: Fc of the bought chimera
# [10] = molecular target: T2, rHuman Erythropoietin R/Fc Chimera, CF …; assay: as above
# [11] = molecular target: T11, rHuman IGF-1 sR, CF (R&D Systems Cat#391-GR) (human, UniProt P08069 31-932); assay: as above
# T11 construct: Bought soluble receptor; also called insulin-like growth factor-1 soluble receptor; IGF-R1
# [12] = molecular target: T12, rHuman ErbB2/Fc Chimera, CF (R&D Systems Cat#1129-ER) (human, UniProt P04626 23-652); assay: as above
# T12 construct: Bought protein; also called HER2/neu; human epidermal growth factor 2 receptor; not shown: Fc of the bought chimera
# [13] = molecular target: T13, rHuman CD44/Fc Chimera, CF (R&D Systems Cat#3660-CD) (human, UniProt P16070 21-220); assay: as above
# T13 construct: Bought protein; not shown: Fc of the bought chimera
# [14] = molecular target: T9, rHuman HGF R/c-MET/Fc Chimera, CF (R&D …); assay: ECL (MSD multi-spot) titration, Fab at 360 nM; blank spot 462
# [15] = molecular target: T10, rHuman P-Cadherin/Fc Chimera, CF (R&D …); assay: as above
# [16] = molecular target: T2, rHuman Erythropoietin R/Fc Chimera, CF …; assay: as above
# [17] = molecular target: T11, rHuman IGF-1 sR, CF (R&D Systems …); assay: as above
# [18] = molecular target: T12, rHuman ErbB2/Fc Chimera, CF (R&D …); assay: as above
# [19] = molecular target: T13, rHuman CD44/Fc Chimera, CF (R&D Systems …); assay: as above
# [20] = molecular target: T10, rHuman P-Cadherin/Fc Chimera, CF (R&D …); assay: ECL (MSD multi-spot) titration, Fab at 0.00391 uM; blank spot 576
# [21] = molecular target: T2, rHuman Erythropoietin R/Fc Chimera, CF …; assay: as above
# [22] = molecular target: T14, rHuman EGF R/Fc Chimera, CF (R&D Systems Cat#344-ER) (human, UniProt P00533 25-645); assay: as above
# T14 construct: Bought protein; also called epidermal growth factor receptor; not shown: Fc of the bought chimera
# [23] = molecular target: T11, rHuman IGF-1 sR, CF (R&D Systems …); assay: as above
# [24] = molecular target: T15, Recombinant Human DLL4 (R&D Systems Cat#1506-D4/CF) (human, UniProt Q9NR61 27-524); assay: as above
# T15 construct: Bought protein; also called delta-like protein 4
# [25] = molecular target: T10, rHuman P-Cadherin/Fc Chimera, CF (R&D …); assay: ECL (MSD multi-spot) titration, Fab at 0.01563 uM; blank spot 906
# [26] = molecular target: T2, rHuman Erythropoietin R/Fc Chimera, CF …; assay: as above
# [27] = molecular target: T14, rHuman EGF R/Fc Chimera, CF (R&D …); assay: as above
# [28] = molecular target: T11, rHuman IGF-1 sR, CF (R&D Systems …); assay: as above
# [29] = molecular target: T15, Recombinant Human DLL4 (R&D Systems …); assay: as above
# [30] = molecular target: T10, rHuman P-Cadherin/Fc Chimera, CF (R&D …); assay: ECL (MSD multi-spot) titration, Fab at 0.25 uM; blank spot 6344
# [31] = molecular target: T2, rHuman Erythropoietin R/Fc Chimera, CF …; assay: as above
# [32] = molecular target: T14, rHuman EGF R/Fc Chimera, CF (R&D …); assay: as above
# [33] = molecular target: T11, rHuman IGF-1 sR, CF (R&D Systems …); assay: as above
# [34] = molecular target: T15, Recombinant Human DLL4 (R&D Systems …); assay: as above
# [35] = molecular target: T10, rHuman P-Cadherin/Fc Chimera, CF (R&D …); assay: ECL (MSD multi-spot) titration, Fab at 0.0625 uM; blank spot 1738
# [36] = molecular target: T2, rHuman Erythropoietin R/Fc Chimera, CF …; assay: as above
# [37] = molecular target: T14, rHuman EGF R/Fc Chimera, CF (R&D …); assay: as above
# [38] = molecular target: T11, rHuman IGF-1 sR, CF (R&D Systems …); assay: as above
# [39] = molecular target: T15, Recombinant Human DLL4 (R&D Systems …); assay: as above
# 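Further: blank spot per well as comparator with Hit at signal to blank ratio of 4 or more.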
binder,measurement,setting,value
"Fab VH1-46_IGHD6-13*01_IGHJ4*01 & O1_IGKJ1*01 (Fab, V domains shown, Fab from E. coli; VH joined to the CH1 (Flag and His tags) of Plasmid A, VL to the kappa CL of Plasmid C) VH: QVQLVQSGAEVKKPGASVKVSCKASGYTFTSYYMHWVRQAPGQGLEWMGIINPSGGSTSYAQKFQGRVTMTRDTSTSTVYMELSSLRSEDTAVYYCAREGYSSSWYDYFDYWGQGTLVTVSS VL: DIVMTQTPLSLPVTPGEPASISCRSSQSLLDSDDGNTYLDWYLQKPGQSPQLLIYTLSYRASGVPDRFSGSGSGTDFTLKISRVEAEDVGVYYCMQRIEFPSWTFGQGTKVEIK",ECL signal,[1],1450
same,ECL signal,[2],9630
same,ECL signal,[3],2420
same,ECL signal,[4],1610
same,ECL signal,[5],1920
same,ECL signal,[6],1790
same,ECL signal,[7],4240
"Fab VH4-28_IGHD7-27*01_IGHJ1*01 & L2_IGKJ1*01 (Fab, V domains shown, also called Fab No. 1) VH: QVQLQESGPGLVKPSDTLSLTCAVSGYSISSSNWWGWIRQPPGKGLEWIGYIYYSGSTYYNPSLKSRVTMSVDTSKNQFSLKLSSVTAVDTAVYYCARTNWGAEYFQHWGQGTLVTVSS VL: not shown",ECL signal,[8],613
same,ECL signal,[9],693
same,ECL signal,[10],2980
same,ECL signal,[11],486
same,ECL signal,[12],600
same,ECL signal,[13],679
same,ECL signal,[14],581
same,ECL signal,[15],636
same,ECL signal,[16],4720
same,ECL signal,[17],535
same,ECL signal,[18],647
same,ECL signal,[19],740
"Fab VH1-46_IGHD2-15*01_IGHJ2*01 & L2_IGKJ1*01 (Fab, V domains shown, also called Fab No. 6) VH: QVQLVQSGAEVKKPGASVKVSCKASGYTFTSYYMHWVRQAPGQGLEWMGIINPSGGSTSYAQKFQGRVTMTRDTSTSTVYMELSSLRSEDTAVYYCAREGYCSGGSCYSYWYFDLWGRGTLVTVSS VL: not shown",ECL signal,[20],1960
same,ECL signal,[21],5020
same,ECL signal,[22],35900
same,ECL signal,[23],822
same,ECL signal,[24],1550
same,ECL signal,[25],4940
same,ECL signal,[26],11300
same,ECL signal,[27],70800
same,ECL signal,[28],1740
same,ECL signal,[29],4020
same,ECL signal,[30],25500
same,ECL signal,[31],49200
same,ECL signal,[32],117000
same,ECL signal,[33],11000
same,ECL signal,[34],27700
same,ECL signal,[35],7740
same,ECL signal,[36],21100
same,ECL signal,[37],94800
same,ECL signal,[38],3150
same,ECL signal,[39],8050
